According to patent publication US20130224190A1 (INTERNATIONAL DRUG DEVELOPMENT BIOTECH, published 2013):

Target: T1, human C1q (human, UniProt P02745 23-245; P02746 28-253; P02747 29-245)
T1 construct: The assay used recombinant human C1q (Abd Serotec, 0.2 ug/ml) or C1q from natural human complement (Sigma); It was detected with sheep anti-human C1q-peroxidase on plates coated with the MAb; also called recombinant human C1q; human complement
Assay: ELISA, C1q on coated MAb
Method: The binding of human recombinant C1q was assessed by an ELISA binding assay. […] Data represent mean+/−SD of two independent experiments.
Complement binding assay: The binding of human C1q to MAbs was assessed by an ELISA binding assay. The 96-well plates (Nunc) were coated overnight at 4° C. with varying MAb concentrations. After washing, the plates were blocked with PBS-5% BSA for 1 h, and incubated for 1 h with 0.2 μg/ml of recombinant human C1q (Abd Serotec) or 2.5 μl of natural human complement (Sigma). Then, 100 μl of a 1/500 dilution of sheep anti-human C1q peroxidase-conjugated Ab (Abd Serotec) added and incubated for 1 h. The plates were developed with 100 μl per well of TMB substrate (Uptima Interchim). After H₂S0₄ addition, the OD was measured at 450 nm/630 nm using a MRX II microplate reader.

T1 sequence (P02745 23-245 limits assumed, chain 1 of 3): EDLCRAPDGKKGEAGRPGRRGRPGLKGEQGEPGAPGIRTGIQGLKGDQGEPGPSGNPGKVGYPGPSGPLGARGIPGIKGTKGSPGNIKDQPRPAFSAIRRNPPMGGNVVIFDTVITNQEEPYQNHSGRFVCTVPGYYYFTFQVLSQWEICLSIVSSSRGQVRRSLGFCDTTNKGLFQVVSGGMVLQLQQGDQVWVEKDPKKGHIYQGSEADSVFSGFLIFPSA
T1 sequence (P02746 28-253 limits assumed, chain 2 of 3): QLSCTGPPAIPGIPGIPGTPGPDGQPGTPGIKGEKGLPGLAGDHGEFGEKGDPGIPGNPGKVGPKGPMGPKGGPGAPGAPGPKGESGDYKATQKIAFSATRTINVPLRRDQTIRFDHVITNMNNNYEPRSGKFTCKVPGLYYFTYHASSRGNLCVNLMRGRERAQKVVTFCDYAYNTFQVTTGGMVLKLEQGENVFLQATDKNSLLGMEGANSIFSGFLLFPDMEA
T1 sequence (P02747 29-245 limits assumed, chain 3 of 3): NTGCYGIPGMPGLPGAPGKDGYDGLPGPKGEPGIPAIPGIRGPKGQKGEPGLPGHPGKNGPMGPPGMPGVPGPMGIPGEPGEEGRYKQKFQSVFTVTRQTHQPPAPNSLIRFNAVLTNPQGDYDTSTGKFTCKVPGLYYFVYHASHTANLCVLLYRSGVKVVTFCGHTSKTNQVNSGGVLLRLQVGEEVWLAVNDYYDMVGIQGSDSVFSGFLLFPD

binding result	Binder
binds	chR005-1 Fc24 (antibody, Chimeric human IgG1 with variant Fc24 (F243L/R292P/Y300L/V305L/K326A/E333A/P396L against Fc0); also called chR005-1 Fc24 MAb; Fc24 optimized chR005-1 MAb; not shown: human light chain constant region) heavy: QVQLQQSGAELVRPGSSVKISCKASGYAFSSYWVNWMKQRPGQGLEWIGQIYPGDGDTNYNGKFKGRATVTADKSSSTSYMQFSSLTSEDSAVYFCARSITTVVGCAMDYWGQGTSVTVSSASTKGPSVFPLAPSSKSTSGGTAALGCLVKDYFPEPVTVSWNSGALTSGVHTFPAVLQSSGLYSLSSVVTVPSSSLGTQTYICNVNHKPSNTKVDKKVEPKSCDKTHTCPPCPAPELLGGPSVFLLPPKPKDTLMISRTPEVTCVVVDVSHEDPEVKFNWYVDGVEVHNAKTKPPEEQYNSTLRVVSLLTVLHQDWLNGKEYKCKVSNAALPAPIAKTISKAKGQPREPQVYTLPPSRDELTKNQVSLTCLVKGFYPSDIAVEWESNGQPENNYKTTPLVLDSDGSFFLYSKLTVDKSRWQQGNVFSCSVMHEALHNHYTQKSLSLSPGK light: DIQMTQSSAYLSVSLGGRVTITCKASDHINNWLAWYQHKPGNAPRLLISGATTLETGVPSRFSGSGSGKDYTLSITSLQTEDVATYYCQQSWNTPWTFGGGTK
binds	chR005-1 Fc34 (antibody, Chimeric human IgG1 with variant Fc34 (F243L/R292P/Y300L/V305L/K326A/P396L against Fc0); also called chR005-1 Fc34 MAb; Fc34 LPLLAL; not shown: human light chain constant region) heavy: QVQLQQSGAELVRPGSSVKISCKASGYAFSSYWVNWMKQRPGQGLEWIGQIYPGDGDTNYNGKFKGRATVTADKSSSTSYMQFSSLTSEDSAVYFCARSITTVVGCAMDYWGQGTSVTVSSASTKGPSVFPLAPSSKSTSGGTAALGCLVKDYFPEPVTVSWNSGALTSGVHTFPAVLQSSGLYSLSSVVTVPSSSLGTQTYICNVNHKPSNTKVDKKVEPKSCDKTHTCPPCPAPELLGGPSVFLLPPKPKDTLMISRTPEVTCVVVDVSHEDPEVKFNWYVDGVEVHNAKTKPPEEQYNSTLRVVSLLTVLHQDWLNGKEYKCKVSNAALPAPIEKTISKAKGQPREPQVYTLPPSRDELTKNQVSLTCLVKGFYPSDIAVEWESNGQPENNYKTTPLVLDSDGSFFLYSKLTVDKSRWQQGNVFSCSVMHEALHNHYTQKSLSLSPGK light: DIQMTQSSAYLSVSLGGRVTITCKASDHINNWLAWYQHKPGNAPRLLISGATTLETGVPSRFSGSGSGKDYTLSITSLQTEDVATYYCQQSWNTPWTFGGGTK
